Patent US20230391850A1

Columns and labels:
[1] = target: human polyclonal IgG (Gammanorm) (human); test: Biacore SPR, remaining IgG binding capacity after 100 NaOH cycles as a ratio to the reference ligand SEQ ID NO: 12
[2] = target: human polyclonal IgG (Gammanorm) (human); test: Biacore SPR, ligand on CM5 chip, 1 mg/ml human polyclonal IgG flowed over; signal left after 100 cycles of 10 min in 0.5 M NaOH
[3] = target: human polyclonal IgG (Gammanorm) (human); test: Biacore SPR, reference ligand on CM5 chip, 1 mg/ml human polyclonal IgG; signal left after 100 cycles of 10 min in 0.5 M NaOH (run beside SEQ ID NO 8)
[4] = target: human polyclonal IgG (Gammanorm) (human); test: Biacore SPR, reference ligand on CM5 chip, 1 mg/ml human polyclonal IgG; signal left after 100 cycles of 10 min in 0.5 M NaOH (run beside SEQ ID NO 9)

Row | Substance | Capacity relative to Ref [1] | Capacity after 100 cycles (remaining IgG binding capacity) [2] [%] | Reference capacity after 100 cycles (remaining IgG binding capacity) [3] [%] | Reference capacity after 100 cycles (remaining IgG binding capacity) [4] [%]
1 | Zvar(Q9A, N11R, Q40V, A42K, N43A, L44I)1 (designed binder) | 1.14 | 74 | – | –
2 | Zvar(Q9A,N11E,Q40V,A42K,N43A,L44Di (SEQ ID NO: 12) (designed binder) | – | – | 65 | 64
3 | Zvar(Q9W, N11E, Q40V, A42K, N43A, L44I)1 (designed binder) | 1.09 | 70 | – | –
